Experimental data published in patent publication US20070141139A1, “COMPOSITION FOR INTESTINAL DELIVERY” (priority 2000, published 2007).

Columns and labels:
coho salmon = conditions: orally intubated with rbGH and antacid, 7-week trial; cited from earlier work
[1] = cited from earlier work
[2] = in vivo; cited from earlier work
[3] = in vivo; cited from earlier work; remark: listed apart in the source
[4] = in vivo; cited from earlier work; remark: listed apart in the source
salmonids = conditions: in vivo; cited from earlier work
rainbow trout = assay: Growth of rainbow trout after intraperitoneal injection of recombinant bST; type: in vivo, Oncorhynchus mykiss; conditions: IP, 20 μg bST/g live body weight weekly for 6 weeks; FIG. 4
Description: Intraperitoneal (IP) administration dose per fish weekly was 20 μg bST/g live body weight for 6 weeks.

[5] = test system: proteolytic enzymes, enzyme extract of proximal small intestine; assay: In vitro proteolytic enzyme inhibition by feed ingredients (casein hydrolysis); type: biochemical, rainbow trout; conditions: increasing level of inhibitor inclusion; FIGS. 5-12
Description: • 1. Centrifuge Sorvall model • 2. Bench-top blender • 3. Dissecting material (scissors) • 4. Centrifuge bottle • 5. Disposable cuvettes for spectrophotometer • 6. Microcentrifuge tubes 1,5 ml • 7. Spectrophotometer • 8. Vortexer • 9. Microplates reader from Biorad • 10. 50 mM Tris-HCl pH=7.5 • 11. Commassie blue staining solution • 12. BSA (1 mg\ml) standard solution • 13. TCA 20% • 14. Rainbow trouts pancreatic and duodenal tissues • 15. 0.5% casein in 50 mM Tris-HCl pH=9 • 16. 50 mM Tris-HCl+CaCl2 10 mM pH=7.5 Enzyme Extract • 1. Rainbow trout were weighed and sacrificed. • 2. Dissection was performed to remove the proximal small intestine from the fish. • 3. After weighing, the tissues were homogenised in 50 mM Tris-HCl ph=7.5 (1:10 w\v). • 4. Centrifuge at 16000×g for 30 min at 4° C. • 5. Keep the supernatant. Aliquot and store them at −20 C for further use. • 6. Perform Commassie assay to measure the amount of protein present in the enzyme extract. Commassie Blue Stain Protocol • 1. Weigh 160 mg of BSA in 10 ml of […] Tris-HCl pH=7.5. • 2. […] Read at 655 nm with the microplate reader from Biorad. […] Centrifuge at 12000×g for 5 min and read at 280 nm. […] Centrifuge at 12000×g for 5 min and read at 280 nm. […] Centrifuge at 12000×g for 5 min and read at 280 nm. […] Centrifuge at 12000×g for 5 min and read at 280 nm. […] Centrifuge at 12000×g for 5 min and read at 280 nm. […]

CCCCCCCCC(=O)N(C)C[C@H](O)[C@@H](O)[C@H](O)[C@H](O)CO [Mega-9, reference compound]
growth performance compared to fish dosed with GH alone (coho salmon): significantly increases growth performance | plasma HRP presence compared to controls ([1]; co-delivery with HRP): almost double

CC[C@@]1([C@@H]2O[C@@H]([C@H]3O[C@@](O)(CO)[C@H](C)C[C@@H]3C)C[C@@H]2C)CC[C@H]([C@]2(C)CC[C@]3(C[C@H](O)[C@@H](C)[C@@H]([C@@H](C)[C@@H](OC)[C@H](C)C(=O)O)O3)O2)O1 [monensin]
effect upon HRP absorption [2]: no effect upon HRP absorption

horseradish peroxidase: tracer protein, horseradish peroxidase type 1 (Sigma)
time to transport to the circulation after oral administration [3]: ≤ 1 h

human growth hormone: human growth hormone given with a suspension of sodium salicylate in oil
bioavailability (with reference to intravenous) [4]: 10-20%

B1: bovine GH (bGH): bovine growth hormone (protein, UniProt P01246 27-217, looked up)
Somatotropin: AFPAMSLSGLFANAVLRAQHLHQLAADTFKEFERTYIPEGQRYSIQNTQVAFCFSETIPAPTGKNEAQQKSDLELLRISLLLIQSWLGPLQFLSRVFTNSLVFGTSDRVYEKLKDLEEGILALMRELEDGTPRAGQILKQTYDKFDTNMRSDDALLKNYGLLSCFRKDLHKTETYLRVMKCRRFGEASCAF
increase in growth rate (salmonids): two to three-fold increase in growth rate

B2: recombinant bST: recombinant bovine somatotropin (Monsanto Co.) (protein, UniProt P01246 27-217, looked up)
Somatotropin: B1 Somatotropin
body weight gain (rainbow trout): significantly induces increased body weight gain

B3: lyophylized ovalbumin: protease inhibitor component of the Oralject™ cocktail (protein, UniProt P01012 2-386, looked up)
Ovalbumin: GSIGAASMEFCFDVFKELKVHHANENIFYCPIAIMSALAMVYLGAKDSTRTQINKVVRFDKLPGFGDSIEAQCGTSVNVHSSLRDILNQITKPNDVYSFSLASRLYAEERYPILPEYLQCVKELYRGGLEPINFQTAADQARELINSWVESQTNGIIRNVLQPSSVDSQTAMVLVNAIVFKGLWEKAFKDEDTQAMPFRVTEQESKPVQMMYQIGLFRVASMASEKMKILELPFASGTMSMLVLLPDEVSGLEQLESIINFEKLTEWTSSNVMEERKIKVYLPRMKMEEKYNLTSVLMAMGITDVFSSSANLSGISSAESLKISQAVHAAHAEINEAGREVVGSAEAGVDAASVSEEFRADHPFLFCIKHIATNAVLFFGRCVSP
modifications: lyophilized
in vitro proteolytic enzyme inhibition [5]: affect to differing degrees the inhibition

B4: spray-dried ovalbumin: protease inhibitor component of the Oralject™ cocktail (protein, UniProt P01012 2-386, looked up)
Ovalbumin: B3 Ovalbumin
modifications: spray-dried
in vitro proteolytic enzyme inhibition [5]: affect to differing degrees the inhibition

B5: soya bean trypsin inhibitor: enzyme inhibitor co-delivered with HRP to rainbow trout (protein, UniProt P01070 25-205, looked up)
Trypsin inhibitor A: DFVLDNEGNPLENGGTYYILSDITAFGGIRAAPTGNERCPLTVVQSRNELDKGIGTIISSPYRIRFIAEGHPLSLKFDSFAVIMLCVGIPTEWSVVEDLPEGPAVKIGENKDAMDGWFRLERVSDDEFNNYKLVFCPQQAEDDKCGDIGISIDHDDGTRRLVVSKNKPLVVQFQKLDKESL
oral absorption of HRP ([1]; in vivo, po): increased
